Assay results: patent US20240270857A1 (CHIA TAI TIANQING PHARMACEUTICAL GROUP, published 2024)
Blank lines part the entries; values can stand above or below the binder they belong to.

Columns and labels:
[1] = biological target: T1, hIL36R-ECD hFc recombinant protein (human); assay: ELISA of hybridoma culture supernatant on hIL-36R
T1 construct: also called hIL-36R extracellular region with human antibody heavy chain Fc

[2] = biological target: T2, IL-36R naturally expressed on OVCAR8 cells and on normal human epidermal keratinocytes (NHK cells) (human, UniProt Q9HB29 20-575); assay: cell-based or functional assay
T2 sequence (looked up): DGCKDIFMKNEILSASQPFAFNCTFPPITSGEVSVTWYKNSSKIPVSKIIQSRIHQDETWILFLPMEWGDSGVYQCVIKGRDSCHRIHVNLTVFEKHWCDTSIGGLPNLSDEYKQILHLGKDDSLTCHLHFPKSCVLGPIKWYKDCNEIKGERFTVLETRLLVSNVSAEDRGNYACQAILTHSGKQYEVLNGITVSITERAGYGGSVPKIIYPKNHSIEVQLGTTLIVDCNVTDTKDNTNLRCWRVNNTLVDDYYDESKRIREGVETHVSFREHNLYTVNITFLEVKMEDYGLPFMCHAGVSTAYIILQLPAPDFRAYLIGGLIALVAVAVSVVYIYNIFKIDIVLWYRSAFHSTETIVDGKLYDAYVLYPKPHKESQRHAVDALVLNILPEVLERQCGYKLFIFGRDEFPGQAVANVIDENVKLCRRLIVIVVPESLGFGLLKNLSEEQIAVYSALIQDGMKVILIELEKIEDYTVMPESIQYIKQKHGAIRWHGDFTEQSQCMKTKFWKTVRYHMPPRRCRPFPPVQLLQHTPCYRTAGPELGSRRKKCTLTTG

[3] = biological target: T2, IL-36R naturally expressed on OVCAR8 …; assay: cell-based or functional assay; remark: listed apart in the source
[4] = biological target: T2, IL-36R naturally expressed on OVCAR8 …; assay: cell-based or functional assay; remark: listed apart in the source
[5] = biological target: T3, human IL-36R overexpressed on 293T-hIL36R-NFκB cells (human, UniProt Q9HB29 20-575); assay: cell-based or functional assay
T3 sequence: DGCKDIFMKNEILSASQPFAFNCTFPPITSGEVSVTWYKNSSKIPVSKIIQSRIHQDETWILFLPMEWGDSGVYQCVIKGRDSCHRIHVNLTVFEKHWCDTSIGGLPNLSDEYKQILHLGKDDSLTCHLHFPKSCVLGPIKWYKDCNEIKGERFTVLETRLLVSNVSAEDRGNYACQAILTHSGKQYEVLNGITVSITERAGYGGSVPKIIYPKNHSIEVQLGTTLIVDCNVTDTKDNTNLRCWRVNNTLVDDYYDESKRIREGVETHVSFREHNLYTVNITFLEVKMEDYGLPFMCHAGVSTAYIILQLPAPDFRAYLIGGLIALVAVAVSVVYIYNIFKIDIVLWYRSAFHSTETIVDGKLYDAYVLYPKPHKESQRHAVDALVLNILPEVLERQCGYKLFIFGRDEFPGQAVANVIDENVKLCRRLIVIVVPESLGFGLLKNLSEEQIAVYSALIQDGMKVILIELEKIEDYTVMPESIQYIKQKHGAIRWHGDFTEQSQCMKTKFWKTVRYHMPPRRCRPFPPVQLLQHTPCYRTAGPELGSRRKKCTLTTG

[6] = biological target: T2, IL-36R naturally expressed on OVCAR8 …; assay: cell-based or functional assay; remark: listed apart in the source
[7] = biological target: T2, IL-36R naturally expressed on OVCAR8 …; assay: cell-based or functional assay; remark: listed apart in the source
[8] = biological target: T4, cynomolgus IL-36R overexpressed on 293T-CynoIL36R-NFκB cells (cynomolgus monkey); assay: FACS on 293T-CynoIL36R-NFκB cells, ratio of MFI to background MFI
T4 construct: Entry includes the signal peptide; also called monkey IL-36R
T4 chain: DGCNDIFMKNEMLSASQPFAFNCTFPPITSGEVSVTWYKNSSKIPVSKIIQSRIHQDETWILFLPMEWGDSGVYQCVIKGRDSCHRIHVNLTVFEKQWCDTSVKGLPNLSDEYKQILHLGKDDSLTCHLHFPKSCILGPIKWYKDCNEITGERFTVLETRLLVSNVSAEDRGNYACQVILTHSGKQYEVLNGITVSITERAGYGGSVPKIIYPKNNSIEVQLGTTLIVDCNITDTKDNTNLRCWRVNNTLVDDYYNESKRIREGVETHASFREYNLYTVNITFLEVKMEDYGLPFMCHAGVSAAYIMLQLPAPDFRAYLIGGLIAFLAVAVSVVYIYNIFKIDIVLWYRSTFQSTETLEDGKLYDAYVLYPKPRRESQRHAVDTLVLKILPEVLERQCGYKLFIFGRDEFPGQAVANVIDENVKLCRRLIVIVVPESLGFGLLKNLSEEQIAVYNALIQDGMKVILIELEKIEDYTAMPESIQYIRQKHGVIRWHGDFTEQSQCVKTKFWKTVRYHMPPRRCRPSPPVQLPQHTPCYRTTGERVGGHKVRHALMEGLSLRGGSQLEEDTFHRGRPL
Procedure: After the cells was washed with PBS, the cells were resuspended with 100 μL of PBS and then the fluorescence signal was detected using a flow cytometer (BD, Accuri C6). […] The ratio was the ratio of mean fluorescence intensity (MFI) of the experimental group/the background MFI, and the resulting data were analyzed using GraphPad Prism.

[9] = biological target: T3, human IL-36R overexpressed on …; assay: cell-based or functional assay; remark: listed apart in the source
[10] = biological target: T3, human IL-36R overexpressed on …; assay: cell-based or functional assay; remark: listed apart in the source
[11] = biological target: T5, Human IL-1Rrp2/IL-1R6 protein, His Tag (ACROBiosystems, IL2-H52H6) (human, UniProt Q9HB29 20-335); assay: BLI (ForteBio Octet), antibody on ProA sensor, 1:1 model
T5 construct: Bought protein; the soluble protein is likely only the extracellular part; also called hIL-36R; human IL36R antigen; not shown: His tag
T5 sequence: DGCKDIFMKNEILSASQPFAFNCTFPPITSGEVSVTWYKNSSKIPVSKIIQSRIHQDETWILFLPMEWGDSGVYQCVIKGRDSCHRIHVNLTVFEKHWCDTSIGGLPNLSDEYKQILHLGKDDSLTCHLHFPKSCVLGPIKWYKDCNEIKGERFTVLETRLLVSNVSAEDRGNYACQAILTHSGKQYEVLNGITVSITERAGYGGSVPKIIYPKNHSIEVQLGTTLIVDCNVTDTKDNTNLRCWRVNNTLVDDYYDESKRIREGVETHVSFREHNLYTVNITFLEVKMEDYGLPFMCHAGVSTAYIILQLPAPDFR
Procedure: The affinity of anti-IL-36R antibodies to CynoIL36R-ECD mFc and human IL-1Rrp2/IL-IR6 protein, His Tag (ACROBiosystems, IL2-H52H6) was measured by a ForteBio molecular interaction instrument. […] And then the biosensor was used to bind CynoIL36R-ECD mFc or human IL-1Rrp2/IL-1R6 protein, His Tag which was diluted by a gradient (the initial concentration was 200 nM, 2-fold gradient dilution), the response signals were detected in real time using a Fortebio molecular interaction instrument (SARTORIUS, octet red 96e), and association and dissociation curves were obtained. After the completion of dissociation in each cycle, the biosensor was regenerated for the next capture; the procedure was repeated until the affinity of the different anti-IL-36R antibodies for IL-36R was determined. The resulting data were analyzed by Fortebio Data Analysis 11.0 software in a 1:1 (Langmuir) binding model to determine kₐ (kₒₙ) and kd (koff) values, and the dissociation constant KD was calculated by KD=kd/kₐ. The detection method essentially followed the manufacturer's recommendations, and more information could be found at www.fortebio.com.

[12] = biological target: T2, IL-36R naturally expressed on OVCAR8 …; assay: cell-based or functional assay; remark: listed apart in the source

T1 sequence (chain, as listed by the source limits assumed): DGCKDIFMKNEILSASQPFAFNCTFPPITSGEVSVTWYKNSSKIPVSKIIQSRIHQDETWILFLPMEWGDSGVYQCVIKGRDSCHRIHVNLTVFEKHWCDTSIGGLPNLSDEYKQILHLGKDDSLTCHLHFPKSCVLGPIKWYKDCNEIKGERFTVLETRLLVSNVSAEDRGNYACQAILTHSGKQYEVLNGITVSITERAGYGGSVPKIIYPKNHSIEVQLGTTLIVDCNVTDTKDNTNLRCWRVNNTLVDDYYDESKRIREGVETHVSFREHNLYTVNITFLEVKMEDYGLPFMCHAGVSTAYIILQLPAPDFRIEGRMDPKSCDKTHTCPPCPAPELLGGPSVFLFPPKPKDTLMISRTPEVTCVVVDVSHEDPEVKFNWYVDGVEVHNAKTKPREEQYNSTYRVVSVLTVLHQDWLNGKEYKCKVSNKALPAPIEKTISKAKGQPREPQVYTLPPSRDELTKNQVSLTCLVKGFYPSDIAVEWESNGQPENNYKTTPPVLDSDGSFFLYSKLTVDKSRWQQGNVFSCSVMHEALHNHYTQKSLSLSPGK

binding result [1]: binds
B1: mouse antibody 72C1 (hybridoma clone 72C1) (antibody, V domains shown)
VH: EVQLQQSGPSLVKPSQTLSLTCSVTGASITSGYWNWIRNFPGNKLEYMGYISYSGYTYYNPSLKSRISITRDTSKNQYYLQLISVTTEDTATYYCATGGYDYVEDALYYWGQGTSVTVSS
VL: EILLTQSPAIMSATLGEKVTMSCRASSNVRYMYWYQLKSGASPKLWIYLTSNLASGVPARFSGSGSGTSYSLTISSVEAEDAATYFCQQFTTSPYTFGGGTKLEIK
notes: Mouse hybridoma antibody tested as culture supernatant

IC50; IL-8 production of NHK cells stimulated with hIL36γ, inhibition rate % [2]: 0.13 nM
IC50; IL-8 production of NHK cells stimulated with hIL36α, inhibition rate % [3]: 0.555 nM
IC50; IL-8 production of NHK cells stimulated with hIL36β, inhibition rate % [4]: 1.27 nM
IC50; NFκB-luciferase reporter in 293T-hIL36R-NFκB cells stimulated with hIL36β, inhibition rate % [5]: 1.8 nM
IC50; IL-8 production of OVCAR8 cells stimulated with hIL36α, inhibition rate % [6]: 0.0704 nM
IC50; IL-8 production of OVCAR8 cells stimulated with hIL36γ, inhibition rate % [7]: 0.0727 nM
EC50 [8]: 3.49 nM
IC50; NFκB-luciferase reporter in 293T-hIL36R-NFκB cells stimulated with hIL36γ, inhibition rate % [9]: ~40.2 nM
IC50; NFκB-luciferase reporter in 293T-hIL36R-NFκB cells stimulated with hIL36α, inhibition rate % [10]: 2.77 nM
Kd [11]: 0.881 nM
koff [11]: 5.01e-05 s⁻¹
kon [11]: 56900 M⁻¹ s⁻¹
IC50; IL-8 production of OVCAR8 cells stimulated with hIL36β, inhibition rate % [12]: 0.182 nM
B2: chimeric 6G10 antibody (antibody, human IgG4 S228P, kappa, V domains shown)
VH: EVMLVESGGGLVKPGGSLKLSCAASGITFSRFAMSWIRQTPEKRLEWVATISSGDMYTYYPDSVKGRFTISRDNANNTLYLQMRSLRSEDTAMYYCAIMITTGEHAYWGQGTLVTVSA
VL: EIKMTQSPSSLSASLGDTITITCRASQDISVWLTWYQQKPGNIPKLLIYKASNLHTGVPPRFSGSGSGTDFTFTISSLQPEDITTYYCLQSQSYPWTFGGGTKLEIKR
notes: Mouse variable regions on human IgG4 / kappa; also called xi6G10

binding result [1]: binds
B3: mouse antibody 6G10 (hybridoma clone 6G10) (antibody, V domains shown)
VH: EVMLVESGGGLVKPGGSLKLSCAASGITFSRFAMSWIRQTPEKRLEWVATISSGDMYTYYPDSVKGRFTISRDNANNTLYLQMRSLRSEDTAMYYCAIMITTGEHAYWGQGTLVTVSA
VL: EIKMTQSPSSLSASLGDTITITCRASQDISVWLTWYQQKPGNIPKLLIYKASNLHTGVPPRFSGSGSGTDFTFTISSLQPEDITTYYCLQSQSYPWTFGGGTKLEIK
notes: as for B1

binding result [1]: binds
B4: mouse antibody 74B4D6 (hybridoma clone 74B4D6) (antibody, V domains shown)
VH: EVQLQQPGAELGKPGASVKMACKASGYTFTNYWIHWVKQRPGQGLEWIGTIDPSENYTNYNQKFKGKATLTVDTSSSTAYMQLSSLTSEDKAVYFCTGSSFSYWGQGTLVTVSA
VL: QNVLTQSPAIMSVSPGEKVTMTCSASSSVSFIHWFQQKPGTSPKLWIYTTSNLASGVPARFSGSGSGTSYSLTISRMEAEDAATYYCQQRSSYPLTFGAGTKLELK
notes: as for B1

binding result [1]: binds
B5: mouse antibody 84C4 (hybridoma clone 84C4) (antibody, V domains shown)
VH: EVQLQQLGAELVRPGASVMLSCKVSGYFFTSYWMNWVNQRPGQGLEWIGMIHPYDSETRLNQKFKGKATLTVDKSASTAYLQLSSPTSEEYAVYYCASSTTAFAYWGQGTLVTVSA
VL: DILMTQSPSSLSASLGERVSLTCRASQDIGNALNWLQQAPDGTIKRLIYATSSLDPGVPKRFSGSRSGSDYSLTISSLASEDFVYYYCLQYASSPYTFGGGTKLEIK
notes: as for B1

IC50; IL-8 production of NHK cells stimulated with hIL36γ, inhibition rate % [2]: 0.0136 nM
IC50; IL-8 production of NHK cells stimulated with hIL36α, inhibition rate % [3]: 0.0693 nM
IC50; IL-8 production of NHK cells stimulated with hIL36β, inhibition rate % [4]: 0.0791 nM
IC50; NFκB-luciferase reporter in 293T-hIL36R-NFκB cells stimulated with hIL36β, inhibition rate % [5]: 9.77 nM
IC50; IL-8 production of OVCAR8 cells stimulated with hIL36α, inhibition rate % [6]: 0.253 nM
IC50; IL-8 production of OVCAR8 cells stimulated with hIL36γ, inhibition rate % [7]: 0.213 nM
EC50 [8]: 20.8 nM
IC50; NFκB-luciferase reporter in 293T-hIL36R-NFκB cells stimulated with hIL36γ, inhibition rate % [9]: ~40.8 nM
IC50; NFκB-luciferase reporter in 293T-hIL36R-NFκB cells stimulated with hIL36α, inhibition rate % [10]: 16.4 nM
Kd [11]: 0.254 nM
koff [11]: 9.15e-06 s⁻¹
kon [11]: 36000 M⁻¹ s⁻¹
IC50; IL-8 production of OVCAR8 cells stimulated with hIL36β, inhibition rate % [12]: 0.415 nM
B6: chimeric 58A8D1 antibody (antibody, human IgG4 S228P, kappa, V domains shown)
VH: EVQLQQLGSVLVRPGISVKLSCKASGYSFTSSWMHWTKQRPGQGLEWIGEIHPNSGNTNYNEKFKGKATLTVDTSSRTAYVDLSSLTSEDSAVYYCARSPYGYGGSMDYWGQGTSVTVSS
VL: DIQMTQTTSSLSASLGDRVTISCRASQDIHNYLNWYQQKPDGTVKLLIYYTSRLYSGVPSRFSGSGSGTDYSLTISNLEQEDFATYFCQQGNTLPVMFGSGTKLELKR
notes: Mouse variable regions on human IgG4 / kappa; also called xi58A8D1

binding result [1]: binds
B7: mouse antibody 58A8D1 (hybridoma clone 58A8D1) (antibody, V domains shown)
VH: EVQLQQLGSVLVRPGISVKLSCKASGYSFTSSWMHWTKQRPGQGLEWIGEIHPNSGNTNYNEKFKGKATLTVDTSSRTAYVDLSSLTSEDSAVYYCARSPYGYGGSMDYWGQGTSVTVSS
VL: DIQMTQTTSSLSASLGDRVTISCRASQDIHNYLNWYQQKPDGTVKLLIYYTSRLYSGVPSRFSGSGSGTDYSLTISNLEQEDFATYFCQQGNTLPVMFGSGTKLELK
notes: as for B1
